How the values were obtained:
[1] = molecular target: 磷酸二(2-乙基己基)酯蛋白偶联物 (di(2-ethylhexyl) phosphate coupled to bovine serum albumin) (bovine (牛)) (UniProt P02769); test: indirect ELISA, D-BSA coated on plate, antibody titrated, OD450
[2] = molecular target: 磷酸二(2-乙基己基)酯蛋白偶联物 (di(2-ethylhexyl) phosphate coupled to bovine serum albumin) (bovine (牛)) (UniProt P02769); test: indirect ELISA, D-BSA coated on plate, antibody titrated, OD450; unit from the x axis of Figure 1

UniProt P02769, sequence (P02769 25-607 limits assumed, form in doubt): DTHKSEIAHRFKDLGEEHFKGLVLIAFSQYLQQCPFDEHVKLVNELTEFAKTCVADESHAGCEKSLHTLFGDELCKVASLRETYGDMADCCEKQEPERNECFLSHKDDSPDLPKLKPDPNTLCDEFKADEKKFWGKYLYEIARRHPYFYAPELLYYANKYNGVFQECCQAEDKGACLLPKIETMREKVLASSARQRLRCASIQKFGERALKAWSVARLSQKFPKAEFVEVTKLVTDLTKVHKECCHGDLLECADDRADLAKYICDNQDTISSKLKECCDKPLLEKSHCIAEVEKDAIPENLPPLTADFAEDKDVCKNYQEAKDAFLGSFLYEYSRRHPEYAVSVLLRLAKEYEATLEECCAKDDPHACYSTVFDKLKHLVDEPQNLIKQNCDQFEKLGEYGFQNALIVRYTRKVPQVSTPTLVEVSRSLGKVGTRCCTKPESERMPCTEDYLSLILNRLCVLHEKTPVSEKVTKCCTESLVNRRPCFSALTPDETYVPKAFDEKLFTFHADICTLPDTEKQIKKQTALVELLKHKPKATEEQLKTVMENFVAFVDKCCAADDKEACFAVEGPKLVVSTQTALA

A of the ELISA titer curve (lower asymptote, OD450) [1]: 0.203 OD450
D of the ELISA titer curve (upper asymptote, OD450) [1]: 2.19 OD450
C of the ELISA titer curve y=(A-D)/(1+(x/C)^B)+D (midpoint antibody concentration) [2]: 62.4 ng/mL
B1: 磷酸二(2-乙基己基)酯单克隆抗体 (monoclonal antibody against di(2-ethylhexyl) phosphate, secreted by hybridoma cell line 2D5, CCTCC NO: C2021136) (antibody, V domains shown)
VH: QVQLQQSGAELVRPGSSVKISCKASGYAFSSYWMNWVKQRPGQGLEWIGQIYPGDGDTNYNGKFKGKATLTADKSSSTAYMQLSSLTSEDSAVYFCARSDYPWFVYWGQGTLVTVSA
VL: QIVLTQSPAIMSASPGEKVTISCSASSSVSYMYWYQQKPGSSPKPWIYRTSNLASGVPARFSGSGSGTSYSLTISSMEAEDAATYYCQQYHSYPWTFGGGTKLEIK

From patent CN114317447A
